From patent EP0251446B1, “Non-human Carbonyl hydrolase mutants, DNA sequences and vectors encoding same and hosts transformed with said vectors” (GENENCOR INTERNATIONAL, INC., priority 1986, dated 1988)
*1 amine or outer side, *2 acyl side, *3 side chain or, on linkers, in order; H or OH if unused. Where a SMILES comes first, the peptide text is derived from it. The star is where a group is joined. pNA = O=[N+]([O-])c1ccc(N*)cc1; Suc = O=C(CCC(=O)[*:2])[*:1]

Assays:
[1] = target: T1, B. amyloliquefaciens subtilisin variant S152 (Ala152 to Ser) (Bacillus amyloliquefaciens, UniProt P00782, A259S); experiment: Kinetics of p-nitroanilide substrate hydrolysis, S152; assay type: biochemical; conditions: Table XII, Ser (S) at position 152; synthetic p-nitroanilide substrate with label as P-1 amino acid
T1 construct: at various amino acid residues within the mature form of the subtilisin molecule; made in house
T1 sequence (P00782 108-382 A259S): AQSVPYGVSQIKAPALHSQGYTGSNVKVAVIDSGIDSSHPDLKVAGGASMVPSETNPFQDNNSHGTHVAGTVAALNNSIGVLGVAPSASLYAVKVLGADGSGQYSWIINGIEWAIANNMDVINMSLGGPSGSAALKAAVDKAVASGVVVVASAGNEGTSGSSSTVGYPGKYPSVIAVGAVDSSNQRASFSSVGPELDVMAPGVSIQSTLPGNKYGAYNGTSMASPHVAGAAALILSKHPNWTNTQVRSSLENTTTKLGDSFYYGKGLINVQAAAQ
From the text: (§1) Wild-type subtilisin was purified from B. subtilis culture supernatants expressing the B. amyloliquefaciens subtilisin gene (Wells, J.A., et al. (1983) Nucleic Acids Res. 11, 7911-7925) as previously described (Estell, D.A., et al. (1985) J. Biol. Chem. 260, 6518-6521). Details of the synthesis of tetrapeptide substrates having the form succinyl-L-AlaL-AlaL-ProL-[X]-p-nitroanilide (where X is the P1 amino acid) are described by DelMar, E.G., et al. (1979) Anal. Biochem. 99, 316-320. Kinetic parameters, Km(M) and kcat-(s-^1) were measured using a modified progress curve analysis (Estell, D.A., et al. (1985) J. Biol. Chem. 260, 6518-6521). Briefly, plots of rate versus product concentration were fit to the differential form of the rate equation using a non-linear regression algorithm. Errors in kcat and Km for all values reported are less than five percent. The various substrates in Table VIII are ranged in order of decreasing hydrophobicity. Nozaki, Y. (1971), J. Biol. Chem. 246, 2211-2217; Tanford C. (1978) Science 200, 1012).
(§2) The wild type DNA sequence was mutated by the V152/P153 primer (Figure 20, line 4) using the above restriction-purification approach for the new Kpnl site. Other mutant primers (shaded sequences Figure 20; S152, line 5 and G152, line 6) mutated the new Kpnl site away and such mutants were isolated using the restriction-selection procedure as described above for loss of the Kpnl site.
(§3) The results of these substitutions for the above synthetic substrates containing the P-1 amino acids Phe, Leu and Ala are shown in Table XII.

[2] = target: T2, B. amyloliquefaciens subtilisin, wild type (WT, Gly166) (Bacillus amyloliquefaciens, UniProt P00782); experiment: Kinetics of hydrolysis of succinyl-Ala-Ala-Pro-X-p-nitroanilide substrates (progress curve analysis); assay type: biochemical; conditions: for kcat/Kmx10^-4: Table XII, Ala (wild type) at position 152, synthetic p-nitroanilide substrate with label as P-1 amino acid
T2 construct: at various amino acid residues within the mature form of the subtilisin molecule; made in house; host or cells: Bacillus subtilis (secreted, culture supernatant)
T2 sequence (P00782 108-382): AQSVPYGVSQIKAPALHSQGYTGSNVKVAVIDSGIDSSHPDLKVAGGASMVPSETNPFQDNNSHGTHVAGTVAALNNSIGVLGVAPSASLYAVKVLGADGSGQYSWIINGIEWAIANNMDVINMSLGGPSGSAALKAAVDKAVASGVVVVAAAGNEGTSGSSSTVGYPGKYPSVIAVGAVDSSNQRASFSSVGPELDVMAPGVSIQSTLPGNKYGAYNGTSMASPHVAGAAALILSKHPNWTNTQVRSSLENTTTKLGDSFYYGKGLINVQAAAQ
From the text: A change in substrate specificity is defined as a difference between the kcat/Km ratio of the precursor carbonyl hydrolase and that of the hydrolase mutant. The kcat/Km ratio is a measure of catalytic efficienty. Carbonyl hydrolase mutants with increased or diminished kcat/Km ratios are described in the examples. Generally, the objective will be to secure a mutant having a greater (numerically large) kcat/Km ratio for a given substrate, thereby enabling the use of the enzyme to more efficiently act on a target substrate. A substantial change in kcat/Km ratio is preferably at least 2-fold increase or decrease. However, smaller increases or decreases in the ratio (e.g., at least 1.5-fold) are also considered substantial. An increase in kcat/Km ratio for one substrate may be accompanied by a reduction in kcat/Km ratio for another substrate. […] Km and kcat are measured in accord with known procedures, as described in EPO Publication No. 0130756 or as described herein.
as §1

[3] = target: T3, B. amyloliquefaciens subtilisin variant G152 (Ala152 to Gly) (Bacillus amyloliquefaciens, UniProt P00782, A259G); experiment: Kinetics of p-nitroanilide substrate hydrolysis, G152; assay type: biochemical; conditions: Table XII, Gly (G) at position 152; synthetic p-nitroanilide substrate with label as P-1 amino acid
T3 construct: made in house
T3 sequence (P00782 108-382 A259G): as the sequence (P00782 108-382 A259S) above, with S152G counted along it
From the text: as §1, §2, §3

[4] = substrate: C[C@H](NC(=O)CCC(=O)O)C(=O)N[C@@H](C)C(=O)N1CCC[C@H]1C(=O)N[C@@H](Cc1ccccc1)C(=O)Nc1ccc([N+](=O)[O-])cc1; experiment: Kinetics of p-nitroanilide substrate hydrolysis, deletion mutant; assay type: biochemical, B. amyloliquefaciens; conditions: other: Table V; substrate not given; Km in M
From the text: The effect of deletion of residues 161 through 164 has been shown by comparing the activity of the wild type (WT) enzyme with a mutant enzyme containing this deletion as well as multiple substitutions (i.e., S153/S156/A158/G159/S160/0161-164/1165/S166/A169/R170). This produced the following results:
as §1

[5] = substrate: C[C@H](NC(=O)CCC(=O)O)C(=O)N[C@@H](C)C(=O)N1CCC[C@H]1C(=O)N[C@@H](Cc1ccccc1)C(=O)Nc1ccc([N+](=O)[O-])cc1; experiment: Kinetics of p-nitroanilide substrate hydrolysis, L217; assay type: biochemical, B. amyloliquefaciens; conditions: other: substrate sAAPFpNa; Km in M
From the text: as §1
Tyr217 has been substituted by all other 19 amino acids. Cassette mutagenesis as described in EPO publication No. 0130756 was used according to the protocol of Figure 22. The EcoRV restriction site was used for restriction-purification of pA217.
Since this position is involved in substrate binding, mutations here effect kinetic parameters of the enzyme. […]

[6] = substrate: C[C@H](NC(=O)CCC(=O)O)C(=O)N[C@@H](C)C(=O)N1CCC[C@H]1C(=O)N[C@@H](Cc1ccccc1)C(=O)Nc1ccc([N+](=O)[O-])cc1; experiment: Kinetics of p-nitroanilide substrate hydrolysis, K166/A222; assay type: biochemical, B. amyloliquefaciens; conditions: other: Table XIX
From the text: as §1, with “1012). […]” for “1012).”

[7] = substrate: C[C@H](NC(=O)CCC(=O)O)C(=O)N[C@@H](C)C(=O)N1CCC[C@H]1C(=O)N[C@@H](Cc1ccccc1)C(=O)Nc1ccc([N+](=O)[O-])cc1; experiment: Kinetics of p-nitroanilide substrate hydrolysis, A222; assay type: biochemical, B. amyloliquefaciens; conditions: other: Table XIX
From the text: as §1
Although mutations at position 222 improve oxidation stability they also tend to increase the Km. In this case the A222 mutation was combined with the K166 mutation to give an enzyme with kcat and Km intermediate between the two parent enzymes.

[8] = substrate: C[C@H](NC(=O)CCC(=O)O)C(=O)N[C@@H](C)C(=O)N1CCC[C@H]1C(=O)N[C@@H](C)C(=O)Nc1ccc([N+](=O)[O-])cc1; experiment: Kinetics of p-nitroanilide substrate hydrolysis, H104; assay type: biochemical, B. amyloliquefaciens; conditions: other: Table XI
From the text: as §1
(§4) Tyr104 has been substituted with Ala, His, Leu, Met and Ser. The method used was a modification of the site directed mutagenesis method. According to the protocol of Figure 19, a primer (shaded in line 4) introduced a unique Hindlll site and a frame shift mutation at codon 104. Restriction-purification for the unique Hindlll site facilitated the isolation of the mutant sequence. Restriction-selection against this Hindlll site using pimers in line 5 was used to obtain position 104 mutants.
(§5) The substrates in Table XI were used to analyze the substrate specificity of these mutants.

[9] = substrate: C[C@H](NC(=O)[C@H](Cc1ccccc1)NC(=O)CCC(=O)O)C(=O)N1CCC[C@H]1C(=O)N[C@@H](Cc1ccccc1)C(=O)Nc1ccc([N+](=O)[O-])cc1; experiment: as above; assay type: biochemical, B. amyloliquefaciens; conditions: other: Table XI
From the text: as §1, §4, §5

[10] = substrate: C[C@H](NC(=O)[C@@H]1CCCN1C(=O)[C@H](C)NC(=O)[C@H](Cc1ccccc1)NC(=O)CCC(=O)O)C(=O)Nc1ccc([N+](=O)[O-])cc1; experiment: as above; assay type: biochemical, B. amyloliquefaciens; conditions: other: Table XI
From the text: as §1, §4, §5

[11] = substrate: C[C@H](NC(=O)CCC(=O)O)C(=O)N[C@@H](C)C(=O)N1CCC[C@H]1C(=O)N[C@@H](Cc1ccccc1)C(=O)Nc1ccc([N+](=O)[O-])cc1; experiment: as above; assay type: biochemical, B. amyloliquefaciens; conditions: other: Table XI
From the text: as §1, §4, §5

[12] = Table VIII, substrate succinyl-L-AlaL-AlaL-ProL-[X]-p-nitroanilide, X = label (P1 amino acid)

CC(C)C[C@H](NC(=O)[C@@H]1CCCN1C(=O)[C@H](C)NC(=O)[C@H](C)NC(=O)CCC(=O)O)C(=O)Nc1ccc([N+](=O)[O-])cc1 [Leu] (Suc-AAPL-pNA)
kcat/Kmx10^-4 [1]: 0.5
kcat/Kmx10^-4 [2]: 10.0
kcat/Kmx10^-4 [3]: 0.4

C[C@H](NC(=O)CCC(=O)O)C(=O)N[C@@H](C)C(=O)N1CCC[C@H]1C(=O)N[C@@H](Cc1ccccc1)C(=O)Nc1ccc([N+](=O)[O-])cc1 [Phe] (Suc-AAPF-pNA)
kcat/Kmx10^-4 [1]: 1.0
kcat [2, 12]: 50 S^-1
kcat/Kmx10^-4 [2]: 40.0
kcat ([2]; Table XIII, Glu156/Gly166 (WT), synthetic substrate with label as P-1 residue): 50.00 s-^1
kcat/Kmx10^-4 [3]: 0.2

C[C@H](NC(=O)CCC(=O)O)C(=O)N[C@@H](C)C(=O)N1CCC[C@H]1C(=O)N[C@@H](C)C(=O)Nc1ccc([N+](=O)[O-])cc1 [Ala] (Suc-AAPA-pNA)
kcat/Kmx10^-4 [1]: 0.2
kcat/Kmx10^-4 [2]: 1.0
kcat/Kmx10^-4 [3]: <0.04

C[C@H](NC(=O)CCC(=O)O)C(=O)N[C@@H](C)C(=O)N1CCC[C@H]1C(=O)N[C@@H](CCC(=O)O)C(=O)Nc1ccc([N+](=O)[O-])cc1 [Glu] (Suc-AAPE-pNA)
kcat [2, 12]: 0.54 S^-1

B1: B. amyloliquefaciens subtilisin deletion mutant S153/S156/A158/G159/S160/Δ161-164/I165/S166/A169/R170 (Bacillus amyloliquefaciens; … (protein)
chain: AQSVPYGVSQIKAPALHSQGYTGSNVKVAVIDSGIDSSHPDLKVAGGASMVPSETNPFQDNNSHGTHVAGTVAALNNSIGVLGVAPSASLYAVKVLGADGSGQYSWIINGIEWAIANNMDVINMSLGGPSGSAALKAAVDKAVASGVVVVAASGNSGAGSISYPARYPSVIAVGAVDSSNQRASFSSVGPELDVMAPGVSIQSTLPGNKYGAYNGTSMASPHVAGAAALILSKHPNWTNTQVRSSLENTTTKLGDSFYYGKGLINVQAAAQ
notes: at various amino acid residues within the mature form of the subtilisin molecule; made in house
Km [4]: 5 µM

B2: B. amyloliquefaciens subtilisin variant L217 (Tyr217 to Leu) (Bacillus amyloliquefaciens; Y324L) (protein)
chain: AQSVPYGVSQIKAPALHSQGYTGSNVKVAVIDSGIDSSHPDLKVAGGASMVPSETNPFQDNNSHGTHVAGTVAALNNSIGVLGVAPSASLYAVKVLGADGSGQYSWIINGIEWAIANNMDVINMSLGGPSGSAALKAAVDKAVASGVVVVAAAGNEGTSGSSSTVGYPGKYPSVIAVGAVDSSNQRASFSSVGPELDVMAPGVSIQSTLPGNKYGALNGTSMASPHVAGAAALILSKHPNWTNTQVRSSLENTTTKLGDSFYYGKGLINVQAAAQ
notes: as for B1
Km [5]: 470 µM

B3: B. amyloliquefaciens subtilisin variant K166/A222 (Bacillus amyloliquefaciens; G273K/M329A) (protein)
chain: AQSVPYGVSQIKAPALHSQGYTGSNVKVAVIDSGIDSSHPDLKVAGGASMVPSETNPFQDNNSHGTHVAGTVAALNNSIGVLGVAPSASLYAVKVLGADGSGQYSWIINGIEWAIANNMDVINMSLGGPSGSAALKAAVDKAVASGVVVVAAAGNEGTSGSSSTVKYPGKYPSVIAVGAVDSSNQRASFSSVGPELDVMAPGVSIQSTLPGNKYGAYNGTSAASPHVAGAAALILSKHPNWTNTQVRSSLENTTTKLGDSFYYGKGLINVQAAAQ
notes: as for B1
Km [6]: 200 µM
kcat [6]: 29 s-^1

B4: B. amyloliquefaciens subtilisin variant A222 (Met222 to Ala) (Bacillus amyloliquefaciens; M329A) (protein)
chain: AQSVPYGVSQIKAPALHSQGYTGSNVKVAVIDSGIDSSHPDLKVAGGASMVPSETNPFQDNNSHGTHVAGTVAALNNSIGVLGVAPSASLYAVKVLGADGSGQYSWIINGIEWAIANNMDVINMSLGGPSGSAALKAAVDKAVASGVVVVAAAGNEGTSGSSSTVGYPGKYPSVIAVGAVDSSNQRASFSSVGPELDVMAPGVSIQSTLPGNKYGAYNGTSAASPHVAGAAALILSKHPNWTNTQVRSSLENTTTKLGDSFYYGKGLINVQAAAQ
notes: as for B1
Km [7]: 990 µM
kcat [7]: 42 s-^1

B5: B. amyloliquefaciens subtilisin variant H104 (Tyr104 to His) (Bacillus amyloliquefaciens; Y211H) (protein)
chain: AQSVPYGVSQIKAPALHSQGYTGSNVKVAVIDSGIDSSHPDLKVAGGASMVPSETNPFQDNNSHGTHVAGTVAALNNSIGVLGVAPSASLYAVKVLGADGSGQHSWIINGIEWAIANNMDVINMSLGGPSGSAALKAAVDKAVASGVVVVAAAGNEGTSGSSSTVGYPGKYPSVIAVGAVDSSNQRASFSSVGPELDVMAPGVSIQSTLPGNKYGAYNGTSMASPHVAGAAALILSKHPNWTNTQVRSSLENTTTKLGDSFYYGKGLINVQAAAQ
notes: as for B1
Km [8]: 1900 µM
kcat [8]: 2.0 s-^1
kcat/Km [8]: 1000 M⁻¹ s⁻¹
Km [9]: 410 µM
kcat [9]: 38.0 s-^1
kcat/Km [9]: 91000 M⁻¹ s⁻¹
Km [10]: 150 µM
kcat [10]: 2.4 s-^1
kcat/Km [10]: 16000 M⁻¹ s⁻¹
Km [11]: 710 µM
kcat [11]: 22.0 s-^1
kcat/Km [11]: 31000 M⁻¹ s⁻¹
